IntAct's records for PubMed 20952573

B1: Transcriptional regulatory protein RcsB (Escherichia coli (strain K12)), P0DMC7 (parent)
chain: MNNMNVIIADDHPIVLFGIRKSLEQIEWVNVVGEFEDSTALINNLPKLDAHVLITDLSMPGDKYGDGITLIKYIKRHFPSLSIIVLTMNNNPAILSAVLDLDIEGIVLKQGAPTDLPKALAALQKGKKFTPESVSRLLEKISAGGYGDKRLSPKESEVLRLFAEGFLVTEIAKKLNRSIKTISSQKKSAMMKLGVENDIALLNYLSSVTLSPADKD
partner: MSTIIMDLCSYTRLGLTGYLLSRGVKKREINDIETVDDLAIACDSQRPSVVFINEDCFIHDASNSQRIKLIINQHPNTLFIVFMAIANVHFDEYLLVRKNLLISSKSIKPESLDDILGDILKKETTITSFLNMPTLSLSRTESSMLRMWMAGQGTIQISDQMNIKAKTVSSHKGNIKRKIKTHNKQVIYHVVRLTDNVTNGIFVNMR

Variants of: B1
Conditions: with rcsa_ecoli rcsA

| effect of a mutation on the interaction | Variant |
| --- | --- |
| decreasing interaction | MNNMNVIIADDHPIVLFGIRKSLEQIEWVNVVGEFEDSTALINNLPKLDAHVLITELSMPGDKYGDGITLIKYIKRHFPSLSIIVLTMNNNPAILSAVLDLDIEGIVLKQGAPTDLPKALAALQKGKKFTPESVSRLLEKISAGGYGDKRLSPKESEVLRLFAEGFLVTEIAKKLNRSIKTISSQKKSAMMKLGVENDIALLNYLSSVTLSPADKD [D56E] |
